For test [1], the target named is full-length human galectin-3 (human, UniProt P17931 1-250). Briefly: ITC.
In test [2] the target is His-tagged galectin-3 (human, UniProt P17931 1-250). Nature of the test: AlphaScreen or HTRF.

Ends that are not written are not given here. * marks the point of attachment. Galβ1,3GalNAcα = CC(=O)N[C@@H]1[C@@H](O[C@@H]2O[C@H](CO)[C@H](O)[C@H](O)[C@H]2O)[C@@H](O)[C@@H](CO)O[C@@H]1*

full-length human galectin-3, sequence (P17931 whole entry): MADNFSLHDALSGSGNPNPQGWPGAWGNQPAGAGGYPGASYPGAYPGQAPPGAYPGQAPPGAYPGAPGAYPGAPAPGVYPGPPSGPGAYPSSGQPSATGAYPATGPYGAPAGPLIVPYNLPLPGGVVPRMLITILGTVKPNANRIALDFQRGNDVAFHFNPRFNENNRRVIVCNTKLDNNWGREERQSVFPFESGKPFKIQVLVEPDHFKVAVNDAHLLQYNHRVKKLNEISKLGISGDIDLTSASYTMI
His-tagged galectin-3, sequence (P17931 whole entry): as above

HGVT(Galβ1,3GalNAcα)SAPD [MUC1(1-8)-Thr4 truncated glycopeptide carrying the TF antigen]: in test [1], the Ka is 2900 M⁻¹, the dH was -1.32 kcal/mol and the “stoichiometry N” value amounted to 0.97.

HGVT(Galβ1,3GalNAcα)SAPDTRPAPGS [MUC1(1-15)-Thr4 truncated glycopeptide carrying the TF antigen]: in test [1], the Ka is 7600 M⁻¹, the dH is -1.79 kcal/mol and the “stoichiometry N” value came to 0.87.

B1: asialofetuin (ASF), unlabeled (natural protein, UniProt P12763 19-359, looked up)
chain: IPLDPVAGYKEPACDDPDTEQAALAAVDYINKHLPRGYKHTLNQIDSVKVWPRRPTGEVYDIEIDTLETTCHVLDPTPLANCSVRQQTQHAVEGDCDIHVLKQDGQFSVLFTKCDSSPDSAEDVRKLCPDCPLLAPLNDSRVVHAVEVALATFNAESNGSYLQLVEISRAQFVPLPVSVSVEFAVAATDCIAKEVVDPTKCNLLAEKQYGFCKGSVIQKALGGEDVRVTCTLFQTQPVIPQPQPDGAEAEAPSAVPDAAGPTPSAAGPPVASVVVGPSVVAVPLPLHRAHYDLRHTFSGVASVESSSGEAFHVGKTPIVGQPSIPGGPVRLCPGRIRYFKI
modifications: three complex-type N-glycans (asialo)
In test [2], B1 came in with an IC50 of 2.3 nM.

These data come from publication PMC4520625 (Biochemistry, 2015).
